B1: NR2F2 (parent)
chain: VAHVESLQEKSQCALEEYVRSQYP
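Also: lentivirally expressed fusions sorted by FACS into six bins by GFP to DsRed ratio, PSI derived from sequencing read proportions per bin multiplied by bin number.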

In the data set the parent is B1. The experiment in a line: protein stability index of a GFP-peptide fusion (GPS, HEK-293T) (PSI 1-6); higher = more stable. Conditions: c terminus: a fixed tail appended.
As for VTHVESLQEKSQCALEEYVRSQYP, the protein stability index amounted to 3.73.

As for VFHVESLQEKSQCALEEYVRSQYP, the protein stability index amounted to 2.59.

For VKHVESLQEKSQCALEEYVRSQYP, the protein stability index was 3.48.

As for VAHVESLQEVSQCALEEYVRSQYP, the protein stability index is 3.49.

As to VAHVESLQEDSQCALEEYVRSQYP, the protein stability index came out at 4.32.

Regarding VAHVESLQESSQCALEEYVRSQYP, the protein stability index came to 3.76.

For the variant VAHVESLQEGSQCALEEYVRSQYP, the protein stability index is 3.81.

For VAHVESLQELSQCALEEYVRSQYP, the protein stability index came to 3.07.

VAHVESLQEPSQCALEEYVRSQYP: the protein stability index amounted to 3.37.

For the variant VAHVESLQECSQCALEEYVRSQYP, the protein stability index turned out to be 2.54.

As to VAHVEGLQEKSQCALEEYVRSQYP, the protein stability index stood at 3.24.

As to VAHVECLQEKSQCALEEYVRSQYP, the protein stability index was 3.48.

Turning to VAHVEELQEKSQCALEEYVRSQYP, the protein stability index amounted to 4.33.

On to VAHVELLQEKSQCALEEYVRSQYP, for which the protein stability index stood at 3.22.

As for VAHVEQLQEKSQCALEEYVRSQYP, the protein stability index came to 3.69.

With VAHVEILQEKSQCALEEYVRSQYP, the protein stability index came to 3.07.

As to VAHVEALQEKSQCALEEYVRSQYP, the protein stability index stood at 4.04.

As to VAHVEKLQEKSQCALEEYVRSQYP, the protein stability index is 4.12.

In the case of VAHVEDLQEKSQCALEEYVRSQYP, the protein stability index amounted to 3.86.

Take VAHVESLQEKTQCALEEYVRSQYP: the protein stability index was 3.53.

Take VAHVESLQEKMQCALEEYVRSQYP: the protein stability index was determined as 2.54.

Take VAHVESLQEKHQCALEEYVRSQYP: the protein stability index came to 3.59.

For the variant VAHVESLQEKYQCALEEYVRSQYP, the protein stability index was found to be 2.36.

For the variant VAHVESLQEKFQCALEEYVRSQYP, the protein stability index is 1.78.

Regarding VAHVESLQEKWQCALEEYVRSQYP, the protein stability index came to 2.61.

As to VAHVESLQEKQQCALEEYVRSQYP, the protein stability index was 2.97.

VAFVESLQEKSQCALEEYVRSQYP: the protein stability index was 2.63.

Consider VAQVESLQEKSQCALEEYVRSQYP, for which the protein stability index is 3.81.

Regarding VAIVESLQEKSQCALEEYVRSQYP, the protein stability index is 2.55.

With VAVVESLQEKSQCALEEYVRSQYP, the protein stability index was found to be 2.83.

As for VAAVESLQEKSQCALEEYVRSQYP, the protein stability index amounted to 3.48.

VAMVESLQEKSQCALEEYVRSQYP: the protein stability index was 3.36.

In the case of VASVESLQEKSQCALEEYVRSQYP, the protein stability index was 3.68.

On to VAKVESLQEKSQCALEEYVRSQYP, for which the protein stability index came out at 3.43.

Consider VAPVESLQEKSQCALEEYVRSQYP, for which the protein stability index turned out to be 4.09.

On to VATVESLQEKSQCALEEYVRSQYP, for which the protein stability index was 3.86.

VALVESLQEKSQCALEEYVRSQYP: the protein stability index was determined as 2.38.

On to VAHVESLQEKSQCSLEEYVRSQYP, for which the protein stability index worked out at 3.78.

With VAHVESLQEKSQCVLEEYVRSQYP, the protein stability index came to 3.83.

On to VAHVESLQEKSQCHLEEYVRSQYP, for which the protein stability index turned out to be 4.08.

As for VAHVESLQEKSQCELEEYVRSQYP, the protein stability index came to 4.68.

Regarding VAHVESLQEKSQCKLEEYVRSQYP, the protein stability index turned out to be 3.88.

Regarding VAHVESLQEKSQCRLEEYVRSQYP, the protein stability index came to 3.43.

VAHVESLQEKSQCFLEEYVRSQYP: the protein stability index was determined as 2.76.

With VAHVESLQEKSQCTLEEYVRSQYP, the protein stability index stood at 3.92.

As to VAHVESLQEKSQCAHEEYVRSQYP, the protein stability index was 4.35.

Take VAHVESLQEKSQCAIEEYVRSQYP: the protein stability index is 3.89.

On to VAHVESLQEKSQCACEEYVRSQYP, for which the protein stability index was 4.01.

As for VAHVESLQEKSQCASEEYVRSQYP, the protein stability index is 4.33.

For VAHVESLQEKSQCAWEEYVRSQYP, the protein stability index amounted to 2.33.

With VAHVESLQEKSQCAREEYVRSQYP, the protein stability index is 4.37.

On to VAHVESLQEKSQCAQEEYVRSQYP, for which the protein stability index is 4.73.

As to VAHVESLQEKSQCAPEEYVRSQYP, the protein stability index is 4.88.

Turning to VAHVDSLQEKSQCALEEYVRSQYP, the protein stability index was found to be 3.18.

In the case of VAHVLSLQEKSQCALEEYVRSQYP, the protein stability index was 2.37.

For VAHVKSLQEKSQCALEEYVRSQYP, the protein stability index was 2.96.

Turning to VAHVHSLQEKSQCALEEYVRSQYP, the protein stability index came to 3.02.

In the case of VAHVTSLQEKSQCALEEYVRSQYP, the protein stability index worked out at 2.93.

With VAHVGSLQEKSQCALEEYVRSQYP, the protein stability index was found to be 2.9.

Turning to VAHVMSLQEKSQCALEEYVRSQYP, the protein stability index amounted to 2.69.

For the variant VAHVRSLQEKSQCALEEYVRSQYP, the protein stability index came out at 2.63.

As to VAHVFSLQEKSQCALEEYVRSQYP, the protein stability index came to 1.92.

For the variant VAHVCSLQEKSQCALEEYVRSQYP, the protein stability index turned out to be 1.97.

As for VAHVNSLQEKSQCALEEYVRSQYP, the protein stability index was 3.38.

Turning to VAHVPSLQEKSQCALEEYVRSQYP, the protein stability index was found to be 3.04.

In the case of VAHVESVQEKSQCALEEYVRSQYP, the protein stability index stood at 4.05.

Turning to VAHVESMQEKSQCALEEYVRSQYP, the protein stability index stood at 3.95.

For VAHVESTQEKSQCALEEYVRSQYP, the protein stability index worked out at 4.13.

VAHVESYQEKSQCALEEYVRSQYP: the protein stability index is 3.45.

On to VAHVESCQEKSQCALEEYVRSQYP, for which the protein stability index stood at 3.81.

Consider VAHVESQQEKSQCALEEYVRSQYP, for which the protein stability index came to 4.08.

As for VAHVESNQEKSQCALEEYVRSQYP, the protein stability index amounted to 4.68.

As for VAHVESKQEKSQCALEEYVRSQYP, the protein stability index was determined as 3.98.

For the variant VAHVESLQEKSQLALEEYVRSQYP, the protein stability index was determined as 3.92.

For the variant VAHVESLQEKSQQALEEYVRSQYP, the protein stability index is 4.55.

As to VAHVESLQEKSQAALEEYVRSQYP, the protein stability index turned out to be 4.7.

Take VAHVESLQEKSQKALEEYVRSQYP: the protein stability index was found to be 3.99.

For the variant VAHVESLQEKSQFALEEYVRSQYP, the protein stability index was 3.58.

With VAHVESLQEKSQRALEEYVRSQYP, the protein stability index came out at 4.23.

Consider VAHVESLQEKSQIALEEYVRSQYP, for which the protein stability index worked out at 3.45.

With VAHVESLQEKSQNALEEYVRSQYP, the protein stability index came to 4.47.

VAHVESLQEKSQEALEEYVRSQYP: the protein stability index stood at 4.91.

VAHVESLQEKSQSALEEYVRSQYP: the protein stability index came to 4.24.

For the variant VAHVESLQEKSQCALEEYVRSLYP, the protein stability index was 3.17.

With VAHVESLQEKSQCALEEYVRSSYP, the protein stability index came to 3.4.

VAHVESLQEKSQCALEEYVRSDYP: the protein stability index was found to be 4.15.

For the variant VAHVESLQEKSQCALEEYVRSVYP, the protein stability index is 3.5.

As to VAHVESLQEKSQCALEEYVRSKYP, the protein stability index amounted to 3.87.

VAHVESLQEKSQCALEEYVRSGYP: the protein stability index was found to be 3.82.

In the case of VAHVESLQEKSQCALEEYVRSWYP, the protein stability index was 2.1.

Take VAHVESLQEKSQCALEEYVRSRYP: the protein stability index came out at 3.05.

Consider VAHVESLQEKSQCALEEYVRSFYP, for which the protein stability index was determined as 2.44.

For the variant VAHVESLQEKSQCALEEYVRSNYP, the protein stability index is 3.54.

On to VAHVESLQEKSQCALEEYVRSHYP, for which the protein stability index came out at 3.56.
